Source: PMC11403621, “Selective Aurora A-TPX2 Interaction Inhibitors Have In Vivo Efficacy as Targeted Antimitotic Agents” (Journal of Medicinal Chemistry, 2024)
No end group written: not given here.

T1: Aurora A kinase domain (residues 126–390) of human Aurora A with hexa-His tag (human, UniProt O14965 126-390)
T1 construct: Construct for biophysical assays; Co-expressed with λ phosphatase, so probably not phosphorylated (surmise); The crystallography constructs differ (Thr287Ala or Cys290Ala); also called Aurora A protein; pBAT4-AurAS.003; source: E. coli BL21(DE3) with pUBS520, double cistronic construct with λ phosphatase, purified (HisTrap, Superdex 75)
T1 sequence (looked up): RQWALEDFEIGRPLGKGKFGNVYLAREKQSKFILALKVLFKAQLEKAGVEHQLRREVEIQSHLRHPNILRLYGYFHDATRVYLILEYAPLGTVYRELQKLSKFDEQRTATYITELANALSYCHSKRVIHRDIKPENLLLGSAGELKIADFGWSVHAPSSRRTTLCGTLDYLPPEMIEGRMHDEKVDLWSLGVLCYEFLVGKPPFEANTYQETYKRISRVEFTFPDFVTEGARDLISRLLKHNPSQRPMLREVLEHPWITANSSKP


Experiments:
[1] = target: T1, Aurora A kinase domain (residues …); assay: ligand-observed NMR (CPMG) competition; small-molecule fragments bound to Aurora A, displaced by added TPX2 peptide 7-22 but not by a tight-binding ATP-site ligand; conditions: both partners purified
[2] = target: T1, Aurora A kinase domain (residues …); assay: fluorescence polarisation; direct titration of up to 200 nM Aurora A to 11 nM labeled TPX2 peptide; 100 mM HEPES pH 7.4, 100 mM magnesium acetate, 50 mM NaCl, 0.02% P20, 1 mM DTT, 1 mM ATP, 10% (v/v) DMSO; conditions: both partners purified

| binding result [1] | Kd [2] [nM] | Binder |
| --- | --- | --- |
| binds |  | SYSYDAPSDFINFSSL (peptide, UniProt Q9ULW0 7-22, looked up, TPX2, UniProt Q9ULW0 (printed for the longer peptide), amino acids 7-22; detailed methods are in the Supporting Information PDF) [TPX2 peptide fragment (amino acids 7–22)] |
|  | 1.2 | GPGSYSYDAPSDFINFSSLDDEGDTQNIDSWFEEKANLENLKGGGC(Alexa Fluor 488 C5 maleimide)SS (residues left at the N-terminus before the TPX2 part in the printed peptide (after HRV 3C cleavage); TPX2, UniProt Q9ULW0, residues 7-43; C-terminal tail as printed: LK followed by the stated GGGCSS tail; the cysteine carries the dye; Whole printed peptide: [residues removed]; also called labeled TPX2 peptide; not shown: His-tag, N-terminal, cleaved; GB1, N-terminal, cleaved) [TPX2 peptide (residues 7–43) with a C-terminal GGGCSS tail, labeled with Alexa Fluor 488] |
